Patent US20210238276A1 (INTEGRAL MOLECULAR, published 2021)
Positions count from the first letter of the chain named. One block for each molecule: values may come before it.

Experiments:
Experiment in all cases: flow cytometry, alanine-scan library in HEK-293T
hsGLUT4 R416A = biological target: T1, hsGLUT4 R416A (human, UniProt P14672 1-509)
T1 sequence: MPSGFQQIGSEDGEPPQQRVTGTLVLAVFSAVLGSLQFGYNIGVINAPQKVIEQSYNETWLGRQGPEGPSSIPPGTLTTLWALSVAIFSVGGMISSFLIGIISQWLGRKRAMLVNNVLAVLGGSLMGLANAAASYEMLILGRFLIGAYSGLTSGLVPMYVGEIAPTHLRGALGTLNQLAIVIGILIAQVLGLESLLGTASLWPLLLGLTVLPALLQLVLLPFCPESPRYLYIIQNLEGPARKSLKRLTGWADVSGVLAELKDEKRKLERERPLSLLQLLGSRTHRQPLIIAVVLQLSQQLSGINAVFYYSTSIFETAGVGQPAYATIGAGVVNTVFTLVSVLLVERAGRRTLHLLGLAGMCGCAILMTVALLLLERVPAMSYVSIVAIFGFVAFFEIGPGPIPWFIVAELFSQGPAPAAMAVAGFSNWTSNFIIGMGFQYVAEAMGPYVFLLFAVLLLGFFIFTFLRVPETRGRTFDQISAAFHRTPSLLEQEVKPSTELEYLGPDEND
Description: (§1) Because of the state-dependence of the isolated MAbs, we next wished to understand the mechanism by which each MAb could recognize GLUT4 in its different conformations. The residues required for binding of each MAb were determined using shotgun mutagenesis comprehensive alanine scanning (Davidson E & Doranz B J (2014) A High-Throughput Shotgun Mutagenesis Approach to Mapping B-cell Antibody Epitopes. Immunology, which is hereby incorporated by reference in its entirety). All residues of hsGLUT4 were individually mutated to alanine, with existing alanines changed to serines. Mutations were obtained for 508 of the 509 residues of GLUT4 (excluding the initiating methionine). The entire mutation library was transfected into human HEK-293T cells in a 384-well array format (one clone per well) and assessed for immunoreactivity using high-throughput flow cytometry.
(§2) HEK-293T cells were transfected by CaPO₄ with plasmids in 6-well culture plates (Falcon) at 750,000 cells/well. At 48 hours post transfection, cells were stained with anti-V5 and anti-GLUT4 MAbs (purified scFv, 2 μg/ml) followed by biotinylated goat anti-mouse or human antibody (1:500) and streptavidin-PerCP (1:500). Fluorescence was detected using an Intellicyt high-throughput flow cytometer (HTFC; Intellicyt, Albuquerque, N. Mex.). For cell permeabilization, cells were treated with saponin at 0.1% in PBS for 20 minutes. To discriminate intact (live) and permeabilized (dead) cells without the use of detergent, propidium iodide (PI) was added to HEK-293T cells at 1 ug/ml just prior to flow cytometry. Where indicated, cytochalasin B (Sigma) was used at a final concentration of 10 uM and phloretin (Sigma) was used at a final concentration of 100 uM, each added in 10% NGS for 30 minutes prior to antibody staining as well as included with the primary antibody.

hsGLUT4 Y159A = biological target: T2, hsGLUT4 Y159A (human, UniProt P14672 1-509)
T2 sequence: T1 sequence with Y159A, A416R
Description: as §1, §2

hsGLUT4 L260A = biological target: T3, hsGLUT4 L260A (human, UniProt P14672 1-509)
T3 sequence: T1 sequence with L260A, A416R
Description: as §1, §2

hsGLUT4 Y502A = biological target: T4, hsGLUT4 Y502A (human, UniProt P14672 1-509)
T4 sequence: T1 sequence with A416R, Y502A
Description: as §1, §2

% of binding to wild type GLUT4 (hsGLUT4 R416A): 73% | % of binding to wild type GLUT4 (hsGLUT4 Y159A): 96% | % of binding to wild type GLUT4 (hsGLUT4 L260A): 98% | % of binding to wild type GLUT4 (hsGLUT4 Y502A): 51%
Molecule: 1F8 (antibody)

% of binding to wild type GLUT4 (hsGLUT4 R416A): 69% | % of binding to wild type GLUT4 (hsGLUT4 Y159A): 122% | % of binding to wild type GLUT4 (hsGLUT4 L260A): 112% | % of binding to wild type GLUT4 (hsGLUT4 Y502A): 4%
B1: AB101 (scFv)
scFv: ALTQPSSVSANPGETVKITCSGSSNSYGWYQQKSPGSAPVTVIYYNDKRPSDIPSRFSGSKSDSTHTLTITGVRAEDEAVYFCGSYDSTYVGIFGAGTTLTVLGQSSRSSGGGGSSGGGGSAVTLDESGGGLQTPGGTLSLVCKASGFTFSSNAMGWVRQAPGKGLEWVAGISSDGRYTKYGSAVKGRATISRDNGQSTVRLQLNNLRAEDTGTYFCAKAFGNNYRRIYAGQIDAWGHGTEVIVSS
notes: Chicken-derived clone used as a control; the four lead clones were tested as scFv-human IgG1 Fc; also called MAb AB101

B2: AB108 (Fc fusion)
scFv: ALTQPSSVSANLGGTVKITCSGSSGSYGWYQQKAPGSAPVTLIYRNDKRPSDIPSRFSGSESGSTGTLTITGVQAEDEAVYFCGGYDSSAGYAAFGAGTTLTVLGQSSRSSGGGGSSGGGGSAVTLDESGGGLQTPGGALSLVCKASGFTFSSHGMGWVRQAPGKGLEWVGSISTGRYTFYAPAVKGRATISRDNGQSTLRLQLNNLRAEDTGTYYCTKCAGLNGCGGGEIDAWGHGTEVIVSS
notes: Bivalent scFv-Fc; also called MAb AB108; not shown: Fc fragment of human IgG1, cloned in frame with the scFv
% of binding to wild type GLUT4 (hsGLUT4 R416A): 67% | % of binding to wild type GLUT4 (hsGLUT4 Y159A): 46% | % of binding to wild type GLUT4 (hsGLUT4 L260A): 108% | % of binding to wild type GLUT4 (hsGLUT4 Y502A): 94%

B3: AB111 (Fc fusion)
scFv: ALTQPSSVSANPGETVKITCSGSGSWYGWFQQKSPGSAPVTVIYSNDKRPSDIPSRFSGSKSGSTSTLTITGVQVEDEAVYYCGNWDIFGAGTTLTVLGQSSRSSGGGGSSGGGGSAVTLDESGGGLQTPGGALSLVCKASGFTFSSHGMGWVRQAPGKGLEWVASISTGRYTFYAPAVKGRATISRDNGQSTVRLQLNNLRAEDTATYYCTKCAGLNGCGGGEIDAWGHGTEVIVSS
notes: Bivalent scFv-Fc; also called MAb AB111; not shown: Fc fragment of human IgG1, cloned in frame with the scFv
% of binding to wild type GLUT4 (hsGLUT4 R416A): 157% | % of binding to wild type GLUT4 (hsGLUT4 Y159A): 88% | % of binding to wild type GLUT4 (hsGLUT4 L260A): 130% | % of binding to wild type GLUT4 (hsGLUT4 Y502A): 169%
